± gives the standard error. For some assays here: This sample holds only a part of the variants without activity.
B1: glmS ribozyme (parent)
chain: AUAAAAGCGCCAGAACUACAGAAAUGUAGUUGACGAGGAGGAGGUUUAUCGAAUUUUCGGCGGAUGCCUCCAAA

What was measured:
Conditions in all cases: with glucosamine-6-phosphate
glucosamine-6-phosphate [1] = variants of: B1; assay: kcat; higher = faster cleavage; RNA array
Summary of the method: (§1)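 The measurements used barcoded ribozyme variants on sequenced MiSeq chips, transcribed in situ by E. coli RNA polymerase and tracked at 37 °C with a hybridised Cy3 probe. Glucosamine-6-phosphate, 40 μM to 10 mM in HEPES/KCl/Mg(OAc)2 buffer, was flowed in while tiles were imaged over ~14 h. Baseline-normalised signals, also normalised to non-cleaving reference variants, gave per-tile medians that were fit to one- or two-exponential decays for kobs. kcat and KM resulted from weighted Michaelis–Menten fits across concentrations.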

glucosamine-6-phosphate [2] = variants of: B1; assay: KM; higher = weaker cofactor use; RNA array
Summary of the method: as §1

glucosamine-6-phosphate [3] = variants of: B1; assay: self-cleavage kobs at 160 uM GlcN6P; higher = faster cleavage; RNA array
Summary of the method: as §1

glucosamine-6-phosphate [4] = variants of: B1; assay: self-cleavage kobs at 640 uM GlcN6P; higher = faster cleavage; RNA array
Summary of the method: as §1

glucosamine-6-phosphate [5] = variants of: B1; assay: self-cleavage kobs at 2500 uM GlcN6P; higher = faster cleavage; RNA array
Summary of the method: as §1

glucosamine-6-phosphate [6] = variants of: B1; assay: self-cleavage kobs at 10000 uM GlcN6P; higher = faster cleavage; RNA array
Summary of the method: as §1

glucosamine-6-phosphate [7] = variants of: B1; assay: self-cleavage kobs at 40 uM GlcN6P; higher = faster cleavage; RNA array
Summary of the method: as §1

Row | Variant | kcat (glucosamine-6-phosphate [1]) [s⁻¹] | KM (glucosamine-6-phosphate [2]) [µM] | self-cleavage kobs at 160 uM GlcN6P (glucosamine-6-phosphate [3]) [s⁻¹] | self-cleavage kobs at 640 uM GlcN6P (glucosamine-6-phosphate [4]) [s⁻¹] | self-cleavage kobs at 2500 uM GlcN6P (glucosamine-6-phosphate [5]) [s⁻¹] | self-cleavage kobs at 10000 uM GlcN6P (glucosamine-6-phosphate [6]) [s⁻¹] | self-cleavage kobs at 40 uM GlcN6P (glucosamine-6-phosphate [7]) [s⁻¹]
1 | A12C A42U | 0.000217 ± 1.2e-05 | 1230 ± 230 | 3.19e-05 ± 1e-05 | 6.67e-05 ± 1.1e-05 | 0.00016 ± 2.1e-05 | 0.000192 ± 1.2e-05 | 
2 | G7U C8G C50A | 2.71e-05 ± 5.9e-06 |  |  |  |  |  | 
3 | A12G G13U | 9.52e-05 ± 1e-06 | 1020 ± 43 |  | 3.63e-05 ± 8.6e-06 | 6.89e-05 ± 1.1e-05 | 8.62e-05 ± 7.6e-06 | 
4 | A6C U65A | 1.38e-05 ± 2.5e-07 | 3180 ± 190 |  |  |  |  | 
5 | A6U U54C | 0.000261 ± 4.2e-05 | 2260 ± 670 |  | 5.25e-05 ± 1.2e-05 | 0.000165 ± 3.3e-05 | 0.000195 ± 4.6e-05 | 
6 | C8A C71G | 1.09e-05 ± 3.7e-06 |  |  |  |  |  | 
7 | A12G A14C | 0.000175 ± 3.9e-06 | 2970 ± 160 |  | 3.2e-05 ± 7.2e-06 | 7.78e-05 ± 1.1e-05 | 0.000135 ± 1.1e-05 | 
8 | A6G C70A | < 1e-05 |  |  |  |  | < 1e-05 | < 1e-05
9 | A6G G13A | < 1e-05 |  | < 1e-05 | < 1e-05 |  |  | < 1e-05
10 | A6C G29A U57G U69G | 3.11e-05 ± 1.2e-05 |  |  |  |  |  | 
11 | C10U A36U | < 1e-05 |  | < 1e-05 |  |  | < 1e-05 | < 1e-05
12 | A12G U30G | 8.75e-05 ± 7.1e-06 | 1830 ± 510 |  |  | 5.48e-05 ± 8.9e-06 | 7.28e-05 ± 7.5e-06 | < 1e-05
13 | A12C A15G | 0.016 ± 0.0031 | 2400 ± 600 | 0.000883 ± 0.00014 | 0.00332 ± 0.0006 | 0.00626 ± 0.0015 | 0.0142 ± 0.0018 | 0.000302 ± 3.5e-05
14 | A12U G41A | 0.00189 ± 0.00051 | 456 ± 210 | 0.00038 ± 0.00011 | 0.00073 ± 0.00014 | 0.00213 ± 0.0004 | 0.00216 ± 0.00028 | 0.000183 ± 2e-05
15 | G9A A12C | < 1e-05 |  |  | < 1e-05 |  |  | 
16 | A12G U47G | 0.000821 ± 0.00017 | 4640 ± 1600 | 1.69e-05 ± 7.8e-06 | 0.000127 ± 1.6e-05 | 0.000266 ± 2.7e-05 | 0.000573 ± 4.8e-05 | 
17 | A12G U31A G32U | 6.44e-05 ± 1.1e-06 | 5790 ± 240 |  |  |  | 4.08e-05 ± 1.1e-05 | 
18 | A12G C67U | 0.000655 ± 3.4e-05 | 3650 ± 310 |  | 9.59e-05 ± 9.7e-06 | 0.000297 ± 5.2e-05 | 0.000475 ± 4.3e-05 | 
19 | C10G G32C | < 1e-05 |  | < 1e-05 | < 1e-05 |  |  | 

Row | Variant | kcat (glucosamine-6-phosphate [1]) [s⁻¹] | KM (glucosamine-6-phosphate [2]) [µM] | self-cleavage kobs at 160 uM GlcN6P (glucosamine-6-phosphate [3]) [s⁻¹] | self-cleavage kobs at 640 uM GlcN6P (glucosamine-6-phosphate [4]) [s⁻¹] | self-cleavage kobs at 2500 uM GlcN6P (glucosamine-6-phosphate [5]) [s⁻¹] | self-cleavage kobs at 10000 uM GlcN6P (glucosamine-6-phosphate [6]) [s⁻¹] | self-cleavage kobs at 40 uM GlcN6P (glucosamine-6-phosphate [7]) [s⁻¹]
20 | A12C U49G | 0.000332 ± 1.7e-05 | 1730 ± 210 |  | 8.81e-05 ± 2e-05 | 0.000216 ± 9.7e-05 | 0.000282 ± 4e-05 | 
21 | A12C U65C | 0.00043 ± 7.3e-05 | 1950 ± 620 |  | 0.000102 ± 1.9e-05 | 0.000328 ± 8.4e-05 | 0.000343 ± 6.2e-05 | 
22 | A12U C58A | 0.00172 ± 0.00051 |  |  | 5.11e-05 ± 1.2e-05 | 0.000149 ± 2.6e-05 | 0.00051 ± 6.1e-05 | 
23 | C10U A14C | < 1e-05 |  |  |  |  |  | < 1e-05
24 | A12U G40U U45G | 0.00175 ± 0.00051 |  |  | 0.000743 ± 0.00024 | 0.00239 ± 0.0011 | 0.00207 ± 0.00036 | 0.000216 ± 3.5e-05
25 | A6G G37C | < 1e-05 |  | < 1e-05 |  |  |  | 
26 | C11U C58U | 3.64e-05 ± 4.6e-06 |  |  |  | 4.05e-05 ± 1.3e-05 | 3.32e-05 ± 7.1e-06 | 
27 | C11U C58G | 3.35e-05 ± 2.6e-07 | 188 ± 18 |  |  | 3.13e-05 ± 1e-05 | 3.28e-05 ± 7.7e-06 | 
28 | A6U U45G | 0.000193 ± 3.9e-05 |  | < 1e-05 |  |  | 4.41e-05 ± 9.1e-06 | 
29 | A6C C61A | < 1e-05 |  |  |  |  | < 1e-05 | < 1e-05
30 | C10A A12C U56A | 0.000168 ± 4.1e-05 |  |  | 7.12e-05 ± 3e-05 | 0.000306 ± 0.00011 | 0.00015 ± 2.7e-05 | 
31 | C11U U55G C70G | 9.32e-05 ± 8.6e-06 |  |  | 7.75e-05 ± 2.5e-05 |  | 8.94e-05 ± 1.7e-05 | 
32 | C11U G29C | 0.00018 ± 9.3e-06 | 1860 ± 290 |  | 4.1e-05 ± 1.1e-05 | 0.000109 ± 1.3e-05 | 0.00015 ± 1.2e-05 | 
33 | C10G U49A | 1.12e-05 ± 2.4e-06 |  |  | < 1e-05 |  |  | < 1e-05
34 | C10G U49C | < 1e-05 |  | < 1e-05 |  | < 1e-05 | < 1e-05 | < 1e-05
35 | A12C G43U | 5.32e-05 ± 9.5e-07 | 1200 ± 86 |  |  | 3.6e-05 ± 8e-06 | 4.74e-05 ± 9.2e-06 | 
36 | C11A A15U | 6.57e-05 ± 4.8e-06 | 1510 ± 380 |  |  | 3.75e-05 ± 1.7e-05 | 5.85e-05 ± 1.7e-05 | 
37 | A6C C70A | 1.39e-05 ± 2.5e-06 |  |  |  |  |  | 

Source: the supplement of paper PMC7125110
